B1: Tripartite motif-containing protein 49C, residues 87 to 133; numbered along this chain, P0CI26 (parent)
chain: SSEEQMCGTHRETKKIFCEVDRSLLCLLCSSSQEHRYHRHRPIEWAA

Variants of: B1
Assay: abundance fitness (aPCA) (normalised: wild type 0, dead -1); higher = more abundant; growth selection in yeast, the domain comes from the species named
Conditions: Homo sapiens

Abundance fitness, by site and new letter:
A46: R -0.249; W -0.156; E -0.076; K -0.368; T 0.194; V -0.203; M -0.008; L -0.039
L24: H -0.298; D -0.294; I -0.61; F -0.069; K -0.403
K15: T -0.119; R -0.415; W -0.668; F -0.32; G -0.265; P -0.79; A -0.337; S -0.147
W45: T 0.345; H 0.361; R 0.111; A 0.282; S 0.292; P 0.346; I 0.12; Y 0.256
R39: Q 0.045; P -0.246; L -0.172; S 0.083
I16: C -0.384; K -0.197; Y -0.077; W -0.28; S -0.439; F -0.325; E -0.444; G -0.554
H35: V -0.892; D -0.821; C -0.636; M -0.916; E -0.997; Q -1.09; I -0.882
H40: F -0.709; T -0.849; V -0.439; S -0.298; Y -0.888; G -0.468; L -0.551; I -0.893; N -1.27; P -0.767; D -0.083
R41: V -0.607; E -0.197; P -0.364; G -0.34; W -0.413; M -0.39
R36: E -0.308; S -0.197; M -0.301; G -0.454; N -0.028; H 0.064; F -0.607; D 0.001
E34: F -0.748; N -0.417; S -0.281; W -0.928; G -0.492; K -0.246; T -0.349; L -0.659; V -0.492
G8: D -0.022; M 0.131; W -0.199; L -0.009; N -0.159; C -0.017; T -0.042; H -0.468
S1: E -0.003; T -0.496; V -0.121; C -0.79; F 0.294
Q33: V 0.01; E 0.081; I 0.694; M -0.257; W -0.352; G -0.151; L -0.012; D -0.264
R11: M -0.48; Q -0.246; V -0.502; C -0.008; S -0.185; H 0.154; F -0.613; Y -1.07
F17: N -0.675; V -0.328; R -0.356; C -0.77; L -0.081; Y -0.205; W 0.089
Q5: E -0.609; R -0.097; Y -0.002; V -0.009; W -0.465; C -0.643; S 0.114; K 0.165
V20: K 0.161; L -0.406; I -0.144; A 0.141; M -0.007; Q 0.052; E 0.101; N -0.014; S -0.07; T -0.067; C -0.446
C18: G -0.821; H -0.768; F -0.802; M -0.674; E -0.333
C7: M -0.718; P -0.598; R -0.513; H -0.429; W -0.499; Y -0.788; A -0.935
E19: K -0.66; W -0.647; L -0.651; G -0.619; T -0.512; S -0.452; Y -0.737; N -0.433; M -0.585; C -0.255; R -0.602
I43: F 0.594; M -0.37; Y 0.335; K 0.352; E 0.24; S -0.011; W -0.395; P -0.524
E4: I -0.142; A -0.224; V -0.093; H -0.351; K -0.502; Y -0.35; D -0.035; L -0.278; T 0.02
S23: G -0.31; Q -0.152; K -0.035; N -0.835; E 0.155; F -0.944; I -0.007; V -0.132
D21: Q 0.104; T 0.061; N -0.01; Y -0.084; H -0.267; R -0.152
R22: N 0.019; F -0.772; Y -0.47; W -0.504; K 0.22; T -0.764; D -0.101; E 0.449; Q 0.117
L27: Q 0.135; G 0.145; M 0.231; N 0.271; I -0.063; A 0.111; W -0.017
A47: S -0.565; G -0.078; H -0.036; D 0.438; R 0.04; C -0.591; V 0.142
S31: Q -0.152; E -0.123; C -0.194; L -0.493; A -0.048; F -0.313
Y37: R -0.109; H 0.181; F -0.059; D 0.176; S 0.171; A 0.181
T9: M -0.265; K 0.185; D -0.395
E3: D 0.084; P -0.172; V -0.292; K -0.295; C 0.068; A 0.051; R -0.213
C26: G -0.734; Y -1.15; W -1.09; R -0.798; E -0.806; H -0.962
S32: P -0.442; L -0.313; A -0.222; I -0.947
H38: M -0.717; I -0.892; Y -0.711; N -0.781; Q -0.562; R -0.591; V -0.851; G -0.84
H10: V -0.788; M -1.06; G -0.671; P -0.549; C -0.523
K14: S -0.708; W -0.431; T -0.644; G -0.518; H -0.738; L -0.247
L25: K -0.59; P -1.06; C -0.208; I -0.033; T -0.612; Y -0.02; W -0.962; H -0.081; R -0.45; S -0.394
S30: I -0.435; W -0.615; Y -0.407; D -0.288; P -0.622; T -0.19; A 0.203; Q -0.665
M6: H -0.215; T -0.414; G -0.553; A -0.575; W -0.651; F -0.769; R -0.338; L -0.13
L28: Q 0.274; H -0.246; R -0.068; N 0.075; M 0.024; T 0.204; V 0.186
E44: V -0.603; W -0.598; P -0.449; S -0.089
S2: D -0.354; R -0.268; Y -0.647; P -0.042; I -0.017; N -0.538
C29: K -0.776; I -1.2
P42: G -0.007; V -0.393; S -0.122; C -0.049; N -0.103; T -0.065; W -0.671; M -0.366; F -0.289
T13: P 0.313; Q 0.148; D -0.364; N -0.431; V -0.033; C -0.22
E12: D 0.077; N -0.797; F -0.035; Q 0.066; M -0.117; A 0.113; I -0.341; Y -0.092; T 0.047

Source: the Human Domainome abundance scans (Beltran et al. 2025)
